Results published in patent publication US20170145086A1 (VISTERRA, published 2017).

T1: human APRIL variant V181E (Homo sapiens, UniProt O75888)
T1 construct: one of the variants grouped under m24
T1 sequence (APRIL monomer, looked up): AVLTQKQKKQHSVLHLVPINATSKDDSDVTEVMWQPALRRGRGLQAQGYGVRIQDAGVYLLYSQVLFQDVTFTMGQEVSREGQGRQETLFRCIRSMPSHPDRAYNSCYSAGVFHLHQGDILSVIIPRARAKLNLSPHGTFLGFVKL

T2: human FasL (TNFSF6, Adipogen) (human, UniProt P48023 103-281, limits assumed)
T2 sequence (looked up): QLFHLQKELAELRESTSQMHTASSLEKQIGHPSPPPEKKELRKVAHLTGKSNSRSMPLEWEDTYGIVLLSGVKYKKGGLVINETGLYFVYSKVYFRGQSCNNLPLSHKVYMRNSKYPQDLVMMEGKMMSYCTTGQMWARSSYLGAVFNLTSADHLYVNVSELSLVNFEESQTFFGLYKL

T3: human RANKL (TNFSF11; Adipogen) (human, UniProt O14788 152-317, limits assumed)
T3 sequence (looked up): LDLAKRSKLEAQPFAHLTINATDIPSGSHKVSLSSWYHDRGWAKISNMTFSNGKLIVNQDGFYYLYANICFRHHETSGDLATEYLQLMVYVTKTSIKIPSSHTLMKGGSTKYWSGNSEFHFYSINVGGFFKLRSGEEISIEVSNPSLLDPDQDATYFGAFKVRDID

T4: human Tweak (TNFSF12; Abcam) (human, UniProt O43508 94-249, limits assumed)
T4 sequence (looked up): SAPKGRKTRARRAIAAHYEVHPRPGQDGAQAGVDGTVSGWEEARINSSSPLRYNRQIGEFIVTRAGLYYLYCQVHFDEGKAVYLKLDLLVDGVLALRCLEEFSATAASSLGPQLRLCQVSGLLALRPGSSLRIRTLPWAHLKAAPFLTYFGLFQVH

T5: HA-GCN4 hAPRIL (amino acid residues 105-250) (human, UniProt O75888 105-250)
T5 sequence: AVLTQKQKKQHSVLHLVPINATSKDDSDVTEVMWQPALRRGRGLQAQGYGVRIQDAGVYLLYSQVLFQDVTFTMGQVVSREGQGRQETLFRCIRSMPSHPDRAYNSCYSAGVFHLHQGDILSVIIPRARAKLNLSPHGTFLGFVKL

T6: HA-GCN4 mAPRIL (amino acid residues 96-241) (mouse, UniProt Q9D777 96-241, Assembles as a homotrimer through the GCN4 zipper; one protomer is given.)
T6 construct: Bought (R&D Systems); also called HA-tagged mouse APRIL (R&D Systems); recombinant mouse APRIL; not shown: N-terminal HA tag and GCN4 isoleucine-zipper trimerisation domain, with any linker, of the bought R&D Systems protein
T6 sequence: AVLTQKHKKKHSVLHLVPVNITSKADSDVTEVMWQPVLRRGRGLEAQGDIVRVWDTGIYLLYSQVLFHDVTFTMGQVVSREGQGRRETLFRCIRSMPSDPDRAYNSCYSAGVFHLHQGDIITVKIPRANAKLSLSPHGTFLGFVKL

T7: FLAG-tagged mouse APRIL (WT muAPRIL and muAPRIL Mutants) (Mus musculus, UniProt Q9D777)
T7 sequence (APRIL monomer, looked up): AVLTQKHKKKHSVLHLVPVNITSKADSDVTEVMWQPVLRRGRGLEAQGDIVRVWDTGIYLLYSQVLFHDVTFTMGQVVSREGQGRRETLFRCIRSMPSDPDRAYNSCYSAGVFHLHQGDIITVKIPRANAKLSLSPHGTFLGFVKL

T8: pur. muAPRIL (Mus musculus, UniProt Q9D777)
T8 sequence (APRIL monomer, looked up): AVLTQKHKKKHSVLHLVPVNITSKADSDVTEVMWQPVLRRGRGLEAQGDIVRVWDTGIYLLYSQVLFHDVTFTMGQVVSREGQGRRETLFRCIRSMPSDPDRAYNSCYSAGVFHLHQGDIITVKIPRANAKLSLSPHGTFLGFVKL


What was measured:
[1] = biological target: T1, human APRIL variant V181E; test: ELISA on the human APRIL variant V181E [panel V181E]
Description: (§1) Antibody binding to human and mouse variants was assessed by ELISA. […] FLAG-tagged APRIL was captured from cell culture media using anti-FLAG antibody. The results are shown in FIGS. 23A-23B, 24A-24B, and 25A-25B. Differentiated epitope mapping of exemplary anti-APRIL antibodies was performed by site directed mutagenesis. Primary characterization of human APRIL binding site was carried out by site-directed mutagenesis of select amino acid positions within APRIL followed by evaluation of antibody binding to these variants by ELISA.

[2] = biological target: T2, human FasL (TNFSF6, Adipogen); test: indirect ELISA, cytokine coated
Description: (§2) Selected anti-APRIL antibodies were evaluated for potential cross-reactivity with other members of the TNFa superfamily (TNFSF) family of cytokines, including: human TNFα (TNFSF2; Adipogen), human […] (TNFSF4, Adipogen), human FasL (TNFSF6, Adipogen), human TRAIL (TNFSF10, Adipogen), human RANKL (TNFSF11; Adipogen), human Tweak (TNFSF12; Abcam), human and mouse BAFF (TNFSF13B, AB Biosciences and Adipogen, respectively), and human LIGHT (TNFSF14, Adipogen). These cytokines share variable degree of sequence as well as higher order structural homologies. Among them, BAFF appears to be the most closely related to APRIL, with 29% identity and 53% amino acid sequence similarity.
(§3) Binding was evaluated by an indirect ELISA protocol using similar methods described for evaluation of APRIL binding; cytokines were immobilized to ELISA plate at 50 ng per well and then exposed to a solution of each of the test antibodies at a fixed concentration of 10 μg/ml Anti-human or anti-mouse Ig-HRP polyclonal antibody conjugates (Jackson Laboratories) were used for detection of antibody binding. The results presented in FIG. 36 indicated eleven of the twelve antibodies tested in this assay to specifically bind APRIL with no measurable cross-reactivity with the other TNFSF members substantially above assay background.

[3] = biological target: human TRAIL (TNFSF10, Adipogen) (human, UniProt P50591 95-281, limits assumed); test: indirect ELISA, cytokine coated
Description: as §2, §3

[4] = biological target: T3, human RANKL (TNFSF11; Adipogen); test: indirect ELISA, cytokine coated
Description: as §2, §3

[5] = biological target: human LIGHT (TNFSF14, Adipogen) (human, UniProt O43557 89-240, limits assumed); test: indirect ELISA, cytokine coated
Description: as §2, §3

[6] = biological target: human BAFF (TNFSF13B, AB Biosciences) (human, UniProt Q9Y275 134-285, limits assumed); test: indirect ELISA, cytokine coated
Description: as §2, §3

[7] = biological target: human TNFα (TNFSF2; Adipogen) (human, UniProt P01375 85-233, limits assumed); test: indirect ELISA, cytokine coated
Description: as §2, §3

[8] = biological target: T4, human Tweak (TNFSF12; Abcam); test: indirect ELISA, cytokine coated
Description: as §2, §3

[9] = biological target: mouse BAFF (TNFSF13B, Adipogen) (mouse, UniProt Q9WU72 127-309, limits assumed); test: indirect ELISA, cytokine coated
Description: as §2, §3

[10] = biological target: T5, HA-GCN4 hAPRIL (amino acid residues …); test: cell-based or functional assay
[11] = biological target: T5, HA-GCN4 hAPRIL (amino acid residues …); test: blocking ELISA; blocked: human APRIL binding to TACI-Fc
[12] = biological target: T5, HA-GCN4 hAPRIL (amino acid residues …); test: blocking ELISA; blocked: human APRIL binding to BCMA-Fc
Description: Recombinant TACI-Fc or BCMA-Fc was coated on 96 well plates in 0.1 M carbonate-bicarbonate buffer (pH 9.6), overnight at 4° C. Plates were washed three times with 1×PBST (PBS+0.025% Tween 20) followed by blocking with 1% BSA in 1×PBS, 37° C. for 1 hour. All subsequent wash steps were carried out with 1×PBST. To assess antibody blocking, either 15 ng/mL or 50 ng/mL HA-GCN4-huAPRIL was preincubated with varying antibody concentrations ranging from 0.03-30 μg/mL in binding buffer comprised of 1% BSA and 0.025% Tween-20 in 1×PBS. Preincubation was carried out at 30° C. for 1 hour with mixing. Antibody-APRIL premix with 50 ng/mL APRIL or 15 ng/mL APRIL was then added to TACI-Fc coated or BCMA-Fc coated plates, respectively, and incubated for an additional hour at 30° C. HA-tagged APRIL binding to either receptor was quantified using a goat polyclonal anti-HA tag-HRP antibody (Abcam) added at a 1:10000 dilution followed by colorimetric development using 100 μl/well of freshly prepared TMB substrate (KPL) carried out for up to 30 minutes at room temperature before quenching enzymatic reaction by the addition of 1N sulfuric acid. ELISA signal was quantified by absorbance at 450 nm. ELISA data was analyzed by non-linear regression. IC₅₀ values were calculated based on a 4 parameter fit of antibody titration curves. […] Non-blocking antibodies Aprly-1 or Aprly-5 (Enzo Biosciences) were used as negative controls. Mouse specific, blocking antibody aprily-1-1 (Adipogen) was generally used as a positive control in experiments using mouse APRIL (HA-GCN4-mAPRIL).
Assay is based on receptor blocking ELISA using recombinant human APRIL (R&D Systems) and either human TACI-Fc (FIG. 30A) or BCMA-Fc (FIG. 30B).

[13] = biological target: T6, HA-GCN4 mAPRIL (amino acid residues …); test: indirect ELISA on mouse APRIL; row printed 4504-063, legend paragraph 738 says 4540-063
[14] = biological target: T5, HA-GCN4 hAPRIL (amino acid residues …); test: indirect ELISA on human APRIL; row printed 4504-063, legend paragraph 738 says 4540-063
[15] = biological target: T7, FLAG-tagged mouse APRIL (WT muAPRIL and …); test: ELISA, FLAG-APRIL captured with anti-FLAG antibody
Description: as §1

pur. muAPRIL = biological target: T8, pur. muAPRIL; test: ELISA, purified APRIL control
Description: as §1

mouse BAFF (TNFSF13B, Adipogen), sequence (Q9WU72 127-309 limits assumed): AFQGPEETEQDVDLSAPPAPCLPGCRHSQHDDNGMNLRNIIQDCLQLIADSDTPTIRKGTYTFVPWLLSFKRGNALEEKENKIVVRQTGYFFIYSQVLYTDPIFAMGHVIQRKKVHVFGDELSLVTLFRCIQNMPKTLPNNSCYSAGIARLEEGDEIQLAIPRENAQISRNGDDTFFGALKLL
human TNFα (TNFSF2; Adipogen), sequence (P01375 85-233 limits assumed): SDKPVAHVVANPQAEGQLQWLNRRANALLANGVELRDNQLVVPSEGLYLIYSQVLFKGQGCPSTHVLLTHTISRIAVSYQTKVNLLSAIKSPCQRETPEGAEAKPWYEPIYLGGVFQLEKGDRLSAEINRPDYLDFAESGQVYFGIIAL
human LIGHT (TNFSF14, Adipogen), sequence (O43557 89-240 limits assumed): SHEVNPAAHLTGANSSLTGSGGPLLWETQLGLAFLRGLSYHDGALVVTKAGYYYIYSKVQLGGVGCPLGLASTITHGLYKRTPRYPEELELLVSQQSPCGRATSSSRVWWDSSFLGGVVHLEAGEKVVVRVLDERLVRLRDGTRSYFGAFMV
human TRAIL (TNFSF10, Adipogen), sequence (P50591 95-281 limits assumed): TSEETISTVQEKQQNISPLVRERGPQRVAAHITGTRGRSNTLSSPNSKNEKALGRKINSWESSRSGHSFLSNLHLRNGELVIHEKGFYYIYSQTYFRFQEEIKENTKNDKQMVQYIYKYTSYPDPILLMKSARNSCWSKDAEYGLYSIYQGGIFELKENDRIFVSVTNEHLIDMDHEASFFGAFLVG

binding result [1]	binding result [2]	binding result [3]	binding result [4]	binding result [5]	binding result [6]	binding result [7]	binding result [8]	binding result [9]	IC50 (inhibition of APRIL-mediated BCMA NFκB signaling) [10]	IC50 (inhibition of APRIL-mediated TACI NFκB signaling) [10]	IC50 [11]	Relative Activity (normalised to 2419) [11]	IC50 [12]	Relative Activity (normalised to 2419) [12]	EC50 [13]	EC50 [14]	binding result [15]	binding result (pur. muAPRIL)	Binder
binds	no binding (tested: 10 µg/ml (p-1128))	no binding (tested: 10 µg/ml (p-1128))	no binding (tested: 10 µg/ml (p-1128))	no binding (tested: 10 µg/ml (p-1128))	no binding (tested: 10 µg/ml (p-1128))	no binding (tested: 10 µg/ml (p-1128))	no binding (tested: 10 µg/ml (p-1128))	no binding (tested: 10 µg/ml (p-1128))	–	–	–	–	–	–	–	–	–	–	monoclonal antibody 2419 (antibody, V domains shown) VH: QVQLQQSGAELVKPGASVRLSCEASGYTFTDYTIHWVKQRSGQGLEWIGWIYPLRGSINYNEKFKDKATLTADKSSSTVYLELGRLTSKDSAVYFCARHGAYYSNAFDYWGQGTTLTVSS VL: NIVMTQSPASLAVSLGQRATISCRASESVDNDGIRFMHWYQQKPGQPPKLLIYRASNLESGIPARFSGSGSRTDFTLTINPVETDDVATYYCQQSNKDPYTFGGGTKLELK
–	–	–	–	–	–	–	–	–	~1.04 nM	~7.19 nM	0.67 nM	2.43	1.92 nM	8.11	0.00156 nM	0.00206 nM	–	–	monoclonal antibody 4540-063 (antibody, IgG1, V domains shown) VH: QVQLVQSGAELKKPGASVKVSCKASGYTFADYYMNWVRQAPGQGLEWMGWIFPGSGSTYYNQKFQGRVTMTVDKSSSTAYMELSRLRSDDTAVYYCARGDSGRAMDYWGQGTLVTVSS VL: DIQMTQSPSSLSASVGDRVTITCQASQDINKYLAWYQHKPGKAPKLLIHYTSTLETGVPSRFSGSGSGTDFTFTISSLQPEDIATYYCLQYDNLLTFGGGTKVEIK
–	no binding (tested: 10 µg/ml (p-1128))	no binding (tested: 10 µg/ml (p-1128))	no binding (tested: 10 µg/ml (p-1128))	no binding (tested: 10 µg/ml (p-1128))	no binding (tested: 10 µg/ml (p-1128))	no binding (tested: 10 µg/ml (p-1128))	no binding (tested: 10 µg/ml (p-1128))	no binding (tested: 10 µg/ml (p-1128))	–	–	–	–	–	–	–	–	no binding	no binding	monoclonal antibody 4035 (antibody, V domains shown, mouse-derived) VH: QVQLKESGPGLVAPSQSLSITCTVSGFSLTIYDVHWVRQSPGKGLEWLGVIWSDGSTDYNAAFISRLSISKDNSKSQVFFKMNSLQADDTAIYYCARNWVDQAWFAYWGQGTLVTVSA VL: DIQMTQSPASLSASVGETITITCRASKNIYSYLAWYQQKQGKSPQLLVYNAKTLPEGVPSRFSGSGSGTQFSLKINSLQPEDFGSYYCQHHYGTPLTFGAGTKLELK
